Data published in patent US20110135636A1 (SYMPHOGEN A S, published 2011).

B1: antibody 1260 (antibody, human IgG1, kappa, V domains shown)
VH: QVQLKESGPGLVAPSQSLSITCTVSGFSLTTYGVHWVRQPPGKGLEWLGVIWAGGSTNYNSALMSRLSIKKDNSKSQVFLKMNSLQTDDTAMYYCARAYGYNFDYWGQGTTLTVSS
VL: DIQMTQTTSSLSASLGDRVTISCSASQGITNYLNWYQQKPDGTVKLLIYYSSSLHSGVPSRFSGSGSGTDYSLTISNLEPEDIATYYCQQYSEIPYTFGGGTKLELKR
notes: Chimeric IgG1 kappa
B2: antibody 1261 (antibody, human IgG1, kappa, V domains shown)
VH: EVQLVESGGGLVKPGGSLKLSCAVSGFTFSSYVMSWVRQTPEKRLEWVATITSGGRNIYYLDSVKGRFTISRDNAKNTLYLQMSSLRSEDTAMYYCARHEDYRYDGYYAMDYWGQGTSVTVSS
VL: QIVLTQSPAIMSASPGEKVTITCSASSSVSYMHWFQQKPGTSPKLWIYSTSNLASGVPARFSGSGSGTSYSLTISRMEAEDAATYYCQQRSSYPYTFGGGTKLELKR
notes: Chimeric IgG1 kappa
B3: antibody 1284 (antibody, human IgG1, kappa, V domains shown)
VH: QVQLQQPGAELVKPGASVKLSCKASGYTFTSDWMHWMKQRPGQGLEWIGEINPSNGRSSYNEKFKSKATLTVDKSSSTAYMQLSSLTSEDSAVYYCARIGGIYVETYWGQGTLVTVSS
VL: DIVLTQSPASLAVSLGQRATISCRASQSVSTSTYSYMHWYQQKSGQPPKLLIKYASNLESGVPARFSGSGSGTDFTLNIHPVEEEDTATYYCQHSWEIPWTFGGGTKLEIKR
notes: Chimeric IgG1 kappa
B4: antibody 1320 (antibody, human IgG1, kappa, V domains shown)
VH: QVQLQQPGAELVKPGASMKLSCKASGYTFTNYWMHWVKQRPGQGLEWIGEINPSNGRTNYNEKFKSKATLTVDKSSSTAYMQLSSLTSEDSGVYYCAKGGNYYDYDWDYWGQGTTLTVSS
VL: DIQMTQTTSSLSASLGDRVTISCSASQDISNYLNWYQQKPDGTVKLLIYHTSTLHSGVPSRFSGSGSGTDYSLTISNLEPEDIATYYCQQYSKLPWTFGGGTKLEIKR
notes: Chimeric IgG1 kappa

Columns and labels:
[1] = target: T1, recombinant human EGFR extracellular domain with 6xHis (human, UniProt P00533 25-645); assay: SPR competition, competitor Vectibix
T1 construct: In-house produced; also called 6xHis EGFR ECD; soluble human EGFR ECD; not shown: 6xHis tag
Summary of the method: (§1)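 Biacore 3000 SPR with His-tagged EGFR ECD captured on a CM5 chip carrying polyclonal anti-His antibody. A reference run set each anti-EGFR mAb's maximal binding (40 μg/ml). Competitor then saturated the captured antigen before the test mAb was injected again. Inhibition = Ru max before vs after competition.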

[2] = target: T1, recombinant human EGFR extracellular …; assay: SPR competition, competitor 1320
Summary of the method: as §1

[3] = target: T1, recombinant human EGFR extracellular …; assay: SPR competition, competitor Ab-5
Summary of the method: as §1

[4] = target: T1, recombinant human EGFR extracellular …; assay: SPR competition, competitor Erbitux
Summary of the method: as §1

[5] = target: T1, recombinant human EGFR extracellular …; assay: SPR competition, competitor 1347
Summary of the method: as §1

[6] = target: T1, recombinant human EGFR extracellular …; assay: SPR competition, competitor Ab-10
Summary of the method: as §1

[7] = target: T1, recombinant human EGFR extracellular …; assay: SPR competition, competitor 1261
Summary of the method: as §1

[8] = target: T1, recombinant human EGFR extracellular …; assay: SPR competition, competitor Ab-3
Summary of the method: as §1

[9] = target: T1, recombinant human EGFR extracellular …; assay: SPR competition, competitor 1254
Summary of the method: as §1

[10] = target: T1, recombinant human EGFR extracellular …; assay: SPR competition, competitor Vectibix; remark: listed apart in the source
Summary of the method: as §1

[11] = target: T1, recombinant human EGFR extracellular …; assay: SPR competition, competitor 1260
Summary of the method: as §1

[12] = target: T1, recombinant human EGFR extracellular …; assay: SPR competition, competitor Ab-11
Summary of the method: as §1

[13] = target: T1, recombinant human EGFR extracellular …; assay: SPR competition, competitor 1030corr
Summary of the method: as §1

[14] = target: T1, recombinant human EGFR extracellular …; assay: SPR competition, competitor 1449
Summary of the method: as §1

[15] = target: T1, recombinant human EGFR extracellular …; assay: SPR competition, competitor 1277
Summary of the method: as §1

[16] = target: T1, recombinant human EGFR extracellular …; assay: SPR competition, competitor ICR10
Summary of the method: as §1

[17] = target: T1, recombinant human EGFR extracellular …; assay: SPR competition, competitor Erbitux; remark: listed apart in the source
Summary of the method: as §1

[18] = target: T1, recombinant human EGFR extracellular …; assay: SPR competition, competitor 1208
Summary of the method: as §1

[19] = target: T1, recombinant human EGFR extracellular …; assay: SPR competition, competitor 1024
Summary of the method: as §1

[20] = target: T1, recombinant human EGFR extracellular …; assay: SPR competition, competitor Ab-1
Summary of the method: as §1

[21] = target: T1, recombinant human EGFR extracellular …; assay: SPR competition, competitor 1284
Summary of the method: as §1

[22] = target: T1, recombinant human EGFR extracellular …; assay: SPR competition, competitor 1344
Summary of the method: as §1

[23] = target: T1, recombinant human EGFR extracellular …; assay: SPR competition, competitor 992 corr
Summary of the method: as §1

[24] = target: T1, recombinant human EGFR extracellular …; assay: SPR competition, competitor 1257
Summary of the method: as §1

| % inhibition [1] [%] | % inhibition [2] [%] | % inhibition [3] [%] | % inhibition [4] [%] | % inhibition [5] [%] | % inhibition [6] [%] | % inhibition [7] [%] | % inhibition [8] [%] | % inhibition [9] [%] | % inhibition [10] [%] | % inhibition [11] [%] | % inhibition [12] [%] | % inhibition [13] [%] | % inhibition [14] [%] | % inhibition [15] [%] | % inhibition [16] [%] | % inhibition [17] [%] | % inhibition [18] [%] | % inhibition [19] [%] | % inhibition [20] [%] | also measured | Binder |
| --- | --- | --- | --- | --- | --- | --- | --- | --- | --- | --- | --- | --- | --- | --- | --- | --- | --- | --- | --- | --- | --- |
| 31 | 26 | 1 | 8 | 46 | 12 | 97 | 64 | 22 | 10 | 88 | 99 | 18 | 29 | 25 | 91 | 8 | 33 | 33 | 7 | % inhibition [21]: 67%; % inhibition [22]: 83%; % inhibition [23]: -10%; % inhibition [24]: 55% | B1 |
| -21 | -18 | -3 | -2 | 4 | -6 | 95 | 54 | -12 | -5 | 75 | 94 | -6 | -20 | -19 | 24 | -2 | -24 | -24 | -4 | % inhibition [21]: -8%; % inhibition [22]: 65%; % inhibition [23]: 14%; % inhibition [24]: 58% | B2 |
| -2 | -1 | -13 | -7 | 62 | -8 | 4 | 9 | -3 | -13 | 79 | -15 | -5 | -1 | -3 | 86 | -2 | -2 | 0 | -9 | % inhibition [21]: 98%; % inhibition [22]: 73%; % inhibition [23]: 6%; % inhibition [24]: 0% | B3 |
| 14 | 97 | -3 | 2 | 5 | -2 | 4 | 2 | 3 | 6 | -4 | -6 | 0 | 50 | 0 | -3 | 2 | -3 | 93 | 3 | % inhibition [21]: 5%; % inhibition [22]: 2%; % inhibition [23]: -27%; % inhibition [24]: 2% | B4 |
